Results reported in patent publication US20040248232.

What was measured:
[1] = test system: APP substrate Ser-Glu-Val-Lys-Met-Asp-Ala-Glu-Phe
[2] = test system: Z★Val-Lys-Met-MCA substrate

Peak I β-secretase endoprotease activity from bovine chromaffin vesicles, identified as bovine cathepsin L (27 kDa cysteine protease band), sequence (chain, as listed by the source): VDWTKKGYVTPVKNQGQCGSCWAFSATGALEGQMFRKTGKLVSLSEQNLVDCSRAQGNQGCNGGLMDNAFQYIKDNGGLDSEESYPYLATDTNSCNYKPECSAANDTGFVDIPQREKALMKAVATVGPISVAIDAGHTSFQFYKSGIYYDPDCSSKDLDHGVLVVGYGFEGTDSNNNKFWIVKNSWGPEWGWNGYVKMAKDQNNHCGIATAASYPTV

Substance | cleavage of the APP substrate, products analyzed by EMS [1] | fluorescent MCA released by cleavage of the substrate [2] | cleavage of the Z★Val-Lys-Met-MCA substrate, products analyzed by EMS [2]
Peak II-A β-secretase endoprotease activity from bovine chromaffin vesicles, identified as bovine cathepsin B (31 kDa cysteine protease band) | the majority of the Peaks II-A and II-B activities cleaved the Met-Asp bond | the majority of the endoprotease activity in Peak II-A and Peak II-B cleaved the β-secretase scissile bond | –
Peak I β-secretase endoprotease activity from bovine chromaffin vesicles, identified as bovine cathepsin L (27 kDa cysteine protease band) | the majority of Peak I activity cleaved the Lys-Met bond | – | the Peak I activity cleaved the Lys-Met bond in the Z★Val-Lys-Met-MCA substrate
Peak II-B β-secretase endoprotease activity from bovine chromaffin vesicles, identified as bovine cathepsin B (31 kDa cysteine protease band) | the majority of the Peaks II-A and II-B activities cleaved the Met-Asp bond | the majority of the endoprotease activity in Peak II-A and Peak II-B cleaved the β-secretase scissile bond | –
